Reference: paper PMC4297576

Key:
[1] = target: Cdk2/cyclin A complex (T160-phosphorylated full-length human Cdk2 and truncated human cyclin A2, residues 173-432) (human) (UniProt P24941)
[2] = target: Cdk2/cyclin A complex (T160-phosphorylated full-length human Cdk2 and truncated human cyclin A2, residues 173-432) (human) (UniProt P24941); experiment: ITC

peptide corresponding to sub-domain D1C (p21 residues 139-160), sequence (P38936 139-160): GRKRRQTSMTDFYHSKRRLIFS

IC50 of inhibition of Cdk2/cyclin A kinase activity, substrate Histone H1 [1] | IC50 of inhibition of Cdk2/cyclin A kinase activity, substrate Rb-C [1] | Kd [2] | Substance
23.4 nM | 19.9 nM |  | p21-FL-Y77E (from UniProt P38936 1-164) (natural protein)
55.4 nM | 22.8 nM |  | p21-KIDC-Y77E (from UniProt P38936 25-164) (domain or fragment)
68.1 nM | 46.6 nM |  | p21-KIDN-Y77E (from UniProt P38936 9-84) (domain or fragment)
 |  | 208 nM | peptide corresponding to sub-domain D1C (p21 residues 139-160) (from UniProt P38936 139-160)
